# Data: patent publication US20260049151A1 (SHENGHE CHINA BIOPHARMACEUTICAL, published 2026)
# Where two headings read alike, the source gives them in different places.
# T1: Human-TNFR2-His (human, UniProt P20333 23-257)
# T1 construct: Bought protein; also called human TNFR2 protein; TNFR2 protein; not shown: His tag
# T1 sequence (looked up): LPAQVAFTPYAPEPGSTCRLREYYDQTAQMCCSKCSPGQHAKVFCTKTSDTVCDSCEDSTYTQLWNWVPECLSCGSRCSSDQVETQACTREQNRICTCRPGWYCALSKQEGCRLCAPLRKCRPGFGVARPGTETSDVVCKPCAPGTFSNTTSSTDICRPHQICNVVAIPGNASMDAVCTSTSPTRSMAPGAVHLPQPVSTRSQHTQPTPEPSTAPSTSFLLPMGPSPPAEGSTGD
# T2: Human TNFR2 mFc (human, UniProt P20333 23-257)
# T2 construct: Bought protein; not shown: mFc
# T2 sequence (looked up): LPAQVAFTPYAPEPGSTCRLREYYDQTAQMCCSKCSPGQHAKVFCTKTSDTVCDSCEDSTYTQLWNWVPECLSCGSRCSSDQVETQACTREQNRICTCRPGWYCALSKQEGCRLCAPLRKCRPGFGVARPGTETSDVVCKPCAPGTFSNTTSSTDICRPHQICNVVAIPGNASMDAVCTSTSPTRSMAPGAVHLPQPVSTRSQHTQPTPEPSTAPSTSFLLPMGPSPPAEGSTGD
# Key:
# Human-TNFR2-His [1] = target: T1, Human-TNFR2-His; assay: ELISA: Human-TNFR2-His coated (0.1 ug/mL), antibody titrated, goat anti-human IgG Fc detection (Example 2)
# Procedure: (§1) Human-TNFR2-His (manufacturer: SINO, CAT: 10417-H08H, LOT: LC15NO0412) was diluted to 0.1 μg/mL with a coating solution (1×PBS, pH7.4), and coated in 96-well ELISA plate at 100 µL/well overnight at 4° C. The coating solution was poured off. Each well was washed with 1×PBST at 300 μL, washed 4 times with a plate washer, and patted dry on a flat paper. It was blocked with 3% skim milk powder at 300 μL/well, and incubated at 37° C. for 1 h. The blocking solution was poured off, washed 4 times with a plate washer, and patted dry on a flat paper. Negative control and positive control were set up. […] The positive control and antibody were diluted to 10 μg/mL with 3% skim milk powder as the starting concentration, and then diluted by 3-fold gradient (11 gradients in total), and a blank well was set up and only the diluent was added. It was incubated at 37° C. for 1 h at 100 μL/well. The liquid in the well was discarded, washed 4 times with a plate washer, and patted dry on a flat paper. Goat anti-human IgG Fc was diluted with 3% skim milk powder at 1:10000, and incubated at 37° C. for 1 h at 100 μL/well. It was washed 6 times with a plate washer, and patted dry on a flat paper. TMB color developing solution was added at 100 μL/well, and wrapped with aluminum foil. Color development was performed at 37° C. in the dark for 8 min. Termination solution 1M HCl was added to terminate the color development reaction at 100 μL/well. Readings were taken at 450 nm on an ELISA reader.
# Human 4-1BB His [2] = target: T3, Human 4-1BB His (human, UniProt Q07011 24-186); assay: ELISA: Human 4-1BB His coated (0.2 ug/mL), antibody titrated, goat anti-human IgG Fc detection (Example 3)
# T3 construct: Bought protein; lots 198-2146F1-W6 and 2407c-214FF1-YC; also called human 4-1BB protein; 4-1BB protein; not shown: His tag
# Procedure: (§2) Human 4-1BB His (manufacturer: Acro, CAT: 41B-H5258, LOT: 198-2146F1-W6) was diluted to 0.2 μg/mL with a coating solution (1×PBS, pH7.4), and coated in 96-well ELISA plate at 100 μL/well overnight at 4° C. The coating solution was poured off. Each well was washed with 1×PBST at 300 μL, washed 4 times with a plate washer, and patted dry on a flat paper. It was blocked with 3% skim milk powder at 300 μL/well, and incubated at 37° C. for 1 h. The blocking solution was poured off, washed 4 times with a plate washer, and patted dry on a flat paper. Negative control and positive control were set up. […] The variable region of the antibody sequence of the positive control consists of SEQ ID NO: 15 and SEQ ID NO: 19, with the addition of the constant region of human IgG1 (SEQ ID NO: 46 and SEQ ID NO: 47). The positive control and antibody were diluted to 10 μg/mL with 3% skim milk powder as the starting concentration, and then diluted by 3-fold gradient (11 gradients in total), and a blank well was set up and only the diluent was added. It was incubated at 37° C. for 1 h at 100 μL/well. The liquid in the well was discarded, washed 4 times with a plate washer, and patted dry on a flat paper. Goat anti-human IgG Fc was diluted with 3% skim milk powder at 1:20000, and incubated at 37° C. for 1 h at 100 μL/well. It was washed 6 times with a plate washer, and patted dry on a flat paper. TMB color developing solution was added at 100 μL/well, and wrapped with aluminum foil. Color development was performed at 37° C. in the dark for 8 min. Termination solution 1M HCl was added to terminate the color development reaction at 100 μL/well. Readings were taken at 450 nm on an ELISA reader.
# Human 4-1BB Fc = target: T4, Human 4-1BB Fc (human, UniProt Q07011 24-186); assay: bridging ELISA: Human 4-1BB Fc coated (0.3 ug/mL), antibody titrated, then Human-TNFR2-His (0.3 ug/mL), HRP anti-His detection (Example 4)
# T4 construct: same catalogue and lot number as Human 4-1BB His; not shown: Fc
# Procedure: Human 4-1BB Fc (manufacturer: Acro, CAT: 41B-H5258, LOT: 198-2146F1-W6) was diluted to 0.3 μg/mL with a coating solution (1×PBS, pH7.4) and coated into a 96-well ELISA plate at 100 µL/well at 4° C. overnight. The coating solution was poured off. Each well was washed with 1×PBST at 300 μL, washed 4 times with a plate washer, and patted dry on a flat sheet. It was blocked with 3% skim milk powder at 300 μL/well, and incubated at 37° C. for 1 h. The blocking solution was poured off, washed 4 times with a plate washer, and patted dry on a flat sheet. […] Starting at 50 nM, which was used as the initial concentration for 3-fold dilution, a total of 10 gradients were diluted, and a blank well was set up and only the diluent was added. It was incubated at 37° C. for 1 h at 100 μL/well. The liquid in the well was discarded, washed 4 times with a plate washer, and patted dry on a flat paper. Human-TNFR2-His (manufacturer: Sino, CAT: 10417-H08H, LOT: LC15NO0412) was diluted to 0.3 μg/mL, 100 μL was added to each well, and incubated at room temperature for 1 h. The plate was washed 3 times with PBST, and then the HRP-labeled his antibody was diluted with sample diluent at 1:5000, 100 μ L was added to each well, and incubated at room temperature for 1 h. It was washed 6 times with a plate washer, and patted dry on a flat paper. TMB color developing solution was added at 100 μL/well, and wrapped with aluminum foil. Color development was performed at 37° C. in the dark for 8 min. Termination solution 1M HCl was added to terminate the color development reaction at 100 μL/well. Readings were taken at 450 nm on an ELISA reader.
# Human TNFR2 mFc = target: T2, Human TNFR2 mFc; assay: bridging ELISA: Human TNFR2 mFc coated (0.3 ug/mL), antibody titrated, then Human 4-1BB His (0.3 ug/mL), HRP anti-His detection (Example 5)
# Procedure: Human TNFR2 mFc (manufacturer: Kaixia, CAT: TN-HM3R2, LOT: 031202) was diluted to 0.3 μg/mL with a coating solution (1×PBS, pH7.4) and coated into a 96-well ELISA plate at 100 μL/well at 4° C. overnight. The coating solution was poured off. Each well was washed with 1×PBST at 300 μL, washed 4 times with a plate washer, and patted dry on a flat paper. It was blocked with 3% skim milk powder at 300 μL/well, and incubated at 37° C. for 1 h. The blocking solution was poured off, washed 4 times with a plate washer, and patted dry on a flat paper. […] Starting at 50 nM, which was used as the initial concentration for 3-fold dilution, a total of 10 gradients were diluted, and a blank well was set up and only the diluent was added. It was incubated at 37° C. for 1 h at 100 µL/well. The liquid in the well was discarded, washed 4 times with a plate washer, and patted dry on a flat paper. Human 4-1BB His (manufacturer: Acro, CAT: 41B-H5258, LOT: 198-2146F1-W6) was diluted to 0.3 μg/mL, 100 μL was added to each well, and incubated at room temperature for 1 h. The plate was washed 3 times with PBST, and then the HRP-labeled his antibody was diluted with sample diluent at 1:5000, 100 μ L was added to each well, and incubated at room temperature for 1 h. It was washed 6 times with a plate washer, and patted dry on a flat paper. TMB color developing solution was added at 100 μL/well, and wrapped with aluminum foil. Color development was performed at 37° C. in the dark for 8 min. Termination solution 1M HCl was added to terminate the color development reaction at 100 μL/well. Readings were taken at 450 nm on an ELISA reader.
# Human-TNFR2-His [3] = target: T1, Human-TNFR2-His; assay: BLI, antibody on AHC sensor, 100 nM TNFR2-His in solution
# Procedure: The AHC sensor was soaked in 0.02% PBST (0.02% Tween 20, pH 7.4, 1×PBS) as a buffer for 600 s to remove the sucrose covering the sensor surface. The AHC sensor was equilibrated with 0.02% PBST (0.02% Tween 20, pH 7.4, 1×PBS) as a buffer for 60 s, the antibody in the sample plate was solidified for 300 s, and the secondary equilibration buffer was used for 180 s. 100 nM human-TNFR2-His (manufacturer: SINO, CAT: 10417-H08H, LOT: LC15NO0412) protein was bound to the antibody for 300 s and then dissociated for 600 s. After dissociation, 10 mM glycine (pH 2.0) was used as a regeneration buffer for 30 s. The sensor was regenerated with 10 mM glycine (pH 2.0).
# Human-TNFR2-His [4] = target: T1, Human-TNFR2-His; assay: ELISA: Human-TNFR2-His coated (0.1 ug/mL), antibody titrated, goat anti-human IgG Fc detection (Example 2); remark: listed apart in the source
# Procedure: as §1
# Human-TNFR2-His [5] = target: T1, Human-TNFR2-His; assay: as above; remark: listed apart in the source
# Procedure: as §1
# Human-TNFR2-His [6] = target: T1, Human-TNFR2-His; assay: as above; remark: listed apart in the source
# Procedure: as §1
# Human-TNFR2-His [7] = target: T1, Human-TNFR2-His; assay: as above; remark: listed apart in the source
# Procedure: as §1
# Human 4-1BB His [8] = target: T3, Human 4-1BB His; assay: ELISA: Human 4-1BB His coated (0.2 ug/mL), antibody titrated, goat anti-human IgG Fc detection (Example 3); remark: listed apart in the source
# Procedure: as §2
# T3 sequence (Q07011 24-186 limits assumed): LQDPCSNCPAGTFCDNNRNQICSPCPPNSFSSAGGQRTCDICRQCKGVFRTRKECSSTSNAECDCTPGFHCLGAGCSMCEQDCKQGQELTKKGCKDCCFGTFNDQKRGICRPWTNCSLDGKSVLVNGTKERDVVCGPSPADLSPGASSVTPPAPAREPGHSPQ
# T4 sequence (Q07011 24-186 limits assumed): as above
Binder,EC50 (read off the curve) (Human-TNFR2-His [1]) [pM],EC50 (read off the curve) (Human 4-1BB His [2]) [pM],EC50 (read off the curve) (Human 4-1BB Fc) [pM],EC50 (read off the curve) (Human TNFR2 mFc) [pM],EC50 (read off the curve) (Human-TNFR2-His [7]) [pM],further results
"Antibody A (bispecific antibody, human IgG1, kappa, IgG1 subtype; full-length 4-1BB antibody with TNFR2 scFv at the C-terminus of the heavy chains; two identical first and two identical second peptide chains) light: DIQMTQSPSSLSASLGDRVTISCSASQGISNYLNWYQQKPDGTVKLLIYYTSTLHSGVPSRFSGSGSGTDYTLTISSLQPEDIATYYCQQYSKLPWTFGGGTKLEIKRTVAAPSVFIFPPSDEQLKSGTASVVCLLNNFYPREAKVQWKVDNALQSGNSQESVTEQDSKDSTYSLSSTLTLSKADYEKHKVYACEVTHQGLSSPVTKSFNRGEC heavy: not shown",~400,~200,~500,~200,–,–
"Antibody C (bispecific antibody, human IgG1, kappa, IgG1 subtype; full-length 4-1BB antibody with TNFR2 scFv at the N-terminus of the heavy chains) light: DIQMTQSPSSLSASLGDRVTISCSASQGISNYLNWYQQKPDGTVKLLIYYTSTLHSGVPSRFSGSGSGTDYTLTISSLQPEDIATYYCQQYSKLPWTFGGGTKLEIKRTVAAPSVFIFPPSDEQLKSGTASVVCLLNNFYPREAKVQWKVDNALQSGNSQESVTEQDSKDSTYSLSSTLTLSKADYEKHKVYACEVTHQGLSSPVTKSFNRGEC heavy: not shown",~60,~100,~500,~200,–,–
"Positive control 1 (anti-TNFR2 antibody, human IgG1) (antibody, V domains shown) VH: EVQLVQSGAEVKKPGATVKISCKVSGYSITDYLLHWVQQAPGKGLEWMGWIDPEDAKTKYGQKFQSRVTITADTSTDTAYMELSSLRSEDTAVYYCAANSGTGTMDAWGQGTLVTVSS VL: DIVMTQSPATLSVSPGERATLSCKASQNVGSNVDWYQQKPGQSPRVLIYKASIRYTGIPARFSGSGSGTEFTLTISILQSEDFAVYFCMQSKSYPITFGQGTKLEIK",~30,–,–,–,–,Kd (Human-TNFR2-His [3]): 72.4 pM; koff (Human-TNFR2-His [3]): 1.86e-05 s⁻¹; kon (Human-TNFR2-His [3]): 257000 M⁻¹ s⁻¹; EC50 (read off the curve) (Human-TNFR2-His [4]): ~30 pM; EC50 (read off the curve) (Human-TNFR2-His [5]): ~30 pM; EC50 (read off the curve) (Human-TNFR2-His [6]): ~30 pM
"Antibody J2 (bispecific antibody, human IgG4 S228P, kappa, IgG4 subtype; same order as J1) light: DIQMTQSPSSLSASLGDRVTISCSASQGISNYLNWYQQKPDGTVKLLIYYTSTLHSGVPSRFSGSGSGTDYTLTISSLQPEDIATYYCQQYSKLPWTFGGGTKLEIKRTVAAPSVFIFPPSDEQLKSGTASVVCLLNNFYPREAKVQWKVDNALQSGNSQESVTEQDSKDSTYSLSSTLTLSKADYEKHKVYACEVTHQGLSSPVTKSFNRGEC heavy: not shown",–,–,–,–,~200,EC50 (read off the curve) (Human 4-1BB His [8]): ~200 pM
"Antibody M2 (bispecific antibody, human IgG4 S228P, kappa, IgG4 subtype; same order as M1) light: DIQMTQSPSSLSASLGDRVTISCSASQGISNYLNWYQQKPDGTVKLLIYYTSTLHSGVPSRFSGSGSGTDYTLTISSLQPEDIATYYCQQYSKLPWTFGGGTKLEIKRTVAAPSVFIFPPSDEQLKSGTASVVCLLNNFYPREAKVQWKVDNALQSGNSQESVTEQDSKDSTYSLSSTLTLSKADYEKHKVYACEVTHQGLSSPVTKSFNRGEC heavy: not shown",–,–,–,–,~100,–
